This assay concerns the target acetylated BSA (AcBSA) (bovine (from the name BSA)) (UniProt P02769). Description: SPR; AcBSA immobilized (900 RU, CM5, amine coupling; BSA as reference surface), serially diluted SREC-II(44-442) or SR-F1(20-421) injected; TBS-Ca-P; 20 µL/min; 25 °C; global fit, 1:1 Langmuir model; apparent KD. For orientation: In SPR one partner is held on a chip, and binding of the other changes the refractive index at the surface.

B1: SR‐F1(20‐421), SR‐F1 ectodomain (domain or fragment)
chain: SELDPKGQHVCVASSPSAELQCCAGWRQKDQECTIPICEGPDACQKDEVCVKPGLCRCKPGFFGAHCSSRCPGQYWGPDCRESCPCHPHGQCEPATGACQCQADRWGARCEFPCACGPHGRCDPATGVCHCEPGWWSSTCRRPCQCNTAAARCEQATGACVCKPGWWGRRCSFRCNCHGSPCEQDSGRCACRPGWWGPECQQQCECVRGRCSAASGECTCPPGFRGARCELPCPAGSHGVQCAHSCGRCKHNEPCSPDTGSCESCEPGWNGTQCQQPCLPGTFGESCEQQCPHCRHGEACEPDTGHCQRCDPGWLGPRCEDPCPTGTFGEDCGSTCPTCVQGSCDTVTGDCVCSAGYWGPSCNASCPAGFHGNNCSVPCECPEGLCHPVSGSCQPGSGSRDT
As for B1, the Kd is 790 nM, the koff is 0.0015 s⁻¹ and the kon worked out at 2000 M⁻¹ s⁻¹.

The koff is the first-order rate constant of dissociation. Broadly, the kon is the second-order rate constant of association.

The record behind these values is paper PMC8487046.
